Test results from patent publication US20220153864A1 (Pieris, published 2022).

Columns and labels:
[1] = target: T1, human CD137 expressed on cells (Flp-In-CHO::huCD137; NFkB-luc2/CD137 Jurkat cells) (human, UniProt Q07011 24-255); assay: flow cytometry on Flp-In-CHO::huCD137 cells, anti-human IgG detection
T1 construct: whole, on cells; also called human CD137-expressing cells
Procedure: (§1) For flow cytometric analysis, respective cell lines were incubated with an exemplary fusion protein (SEQ ID NOs: 87 and 82), the GPC3 antibody or the CD137 specific lipocalin mutein (Fc fusion) as included in the fusion protein (SEQ ID NOs: 81 and 82 and SEQ ID NO: 98, respectively), a reference CD137 antibody SEQ ID NOs: 26 and 27, or an isotype control (SEQ ID NOs: 24 and 25) and detected using a fluorescently labeled anti-human IgG antibody in FACS analysis as described in the following:
(§2) 5×10⁴ cells per well were incubated for 1 h in ice-cold PBS containing 5% fetal calf serum (PBS-FCS). A dilution series of the testing molecule were added to the cells and incubated for 1 h on ice. Cells were washed twice with PBS and then incubated with a goat anti-hlgG Alexa647-labeled antibody or goat anti-hlgG Alexa488-labeled antibody for 30 min on ice. Cells were subsequently washed and analyzed using iQue Flow cytometer (Intellicyte Screener). Mean geometric fluorescent signals were plotted and fitted with Graphpad software. The geometric means of the fluorescence intensity were used to calculate EC₅₀ values using a four-parameter logistic regression with bottom fixed to background.

[2] = target: T2, human GPC3 expressed on cells (SK-Hep1::huGPC3; HepG2, Hep3B and MKN-45 tumor cells) (human, UniProt P51654 25-554); assay: flow cytometry on SK-Hep1::huGPC3 cells, anti-human IgG detection
T2 construct: whole, on cells; also called GPC3-positive tumor cells; human GPC3-expressing cells
T2 sequence (P51654 25-554 limits assumed): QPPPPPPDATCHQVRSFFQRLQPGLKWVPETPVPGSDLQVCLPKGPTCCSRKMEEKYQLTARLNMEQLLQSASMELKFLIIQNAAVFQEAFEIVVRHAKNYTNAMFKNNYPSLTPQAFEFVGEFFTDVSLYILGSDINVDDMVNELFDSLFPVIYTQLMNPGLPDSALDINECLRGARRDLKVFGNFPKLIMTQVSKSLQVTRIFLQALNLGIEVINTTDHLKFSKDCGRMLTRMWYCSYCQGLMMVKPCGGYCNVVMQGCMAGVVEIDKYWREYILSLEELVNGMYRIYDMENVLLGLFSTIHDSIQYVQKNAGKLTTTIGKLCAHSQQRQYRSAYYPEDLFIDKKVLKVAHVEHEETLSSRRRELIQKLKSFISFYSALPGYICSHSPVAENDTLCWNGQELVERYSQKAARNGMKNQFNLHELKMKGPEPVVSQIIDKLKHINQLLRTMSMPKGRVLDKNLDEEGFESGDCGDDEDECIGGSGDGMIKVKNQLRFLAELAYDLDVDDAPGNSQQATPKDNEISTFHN
Procedure: as §1, §2

[3] = target: T3, huCD137-His (recombinant human CD137 with C-terminal polyhistidine tag, R&D Systems) (human, UniProt Q07011 24-186); assay: ELISA, huCD137-His coated, detection anti-NGAL-HRP
T3 construct: also called biotinylated huCD137-His; not shown: C-terminal polyhistidine tag
Procedure: Recombinant huGPC3 (R&D Systems) at the concentration of 1 μg/mL in PBS was coated overnight on microtiter plates at 4° C. After five washes with 100 μL PBS-0.05% T (PBS supplemented with 0.05% (v/v) Tween 20), the plates were blocked with 2% BSA (w/v) in PBS-0.1% T (PBS-0.1% T-2% BSA) for 1 h at room temperature. After washing with 100 μL PBS-0.05% T (PBS supplemented with 0.05% (v/v) Tween 20) five times, exemplary fusion proteins (SEQ ID NOs: 87 and […] and CD137Ac1-Fusion 1 to 7) or the GPC3 antibody as include in the fusion proteins (SEQ ID NOs: 81 and 82) at different concentrations were added to the wells and incubated for 1 h at room temperature, followed by another wash step. Bound molecules under study were detected by incubation with 1:5000 diluted anti-human IgG Fc-HRP (Jackson Laboratory) in PBS-0.1% T-2% BSA. After an additional wash step, fluorogenic HRP substrate (QuantaBlu, Thermo) was added to each well and the fluorescence intensity was detected using a fluorescence microplate reader.
The same ELISA setup was also employed to determine the binding potency of fusion proteins to cynomolgus GPC3 and huCD137, where recombinant cyGPC3 (R&D Systems) or huCD137-His (recombinant human CD137 with C-terminal polyhistidine tag, R&D Systems) was instead coated on a microtiter plate. The testing agents were similarly titrated and bound agents were detected via anti-NGAL-HRP. […]

[4] = target: T2, human GPC3 expressed on cells …; assay: flow cytometry on Hep3B tumor cells (GPC3 positive)
Procedure: as §2
(§3) For flow cytometric analysis, tumor cell lines with different GPC3 expression levels (high to moderate expression: HepG2>Hep3B>MKN-45) and GPC3 negative cell line NCI-N87 were incubated with an exemplary fusion protein SEQ ID NOs: 87 and 82, the GPC3 antibody or the CD137 specific lipocalin mutein (Fc fusion) as included in the fusion protein (SEQ ID NOs: 81 and 82 and SEQ ID NO: 98, respectively), a reference CD137 antibody SEQ ID NOs: 26 and 27, or an isotype control (SEQ ID NO: 24 and 25), and detected using a fluorescently labeled anti-human IgG antibody as described in Example 6.

[5] = target: T3, huCD137-His (recombinant human CD137 …); assay: dual-binding ELISA: huCD137-His coated, fusion titrated, detection with biotinylated huGPC3
Procedure: (§4) Recombinant huCD137-His (R&D Systems) in PBS (1 μg/mL) was coated overnight on microtiter plates at 4° C. The plates were washed five times after each incubation step with 100 μL PBS-0.05% T. The plates were blocked with PBS-0.1% T-2% BSA for 1 h at room temperature and subsequently washed again. Different concentrations of tested fusion proteins were added to the wells and incubated for 1 h at room temperature, followed by a wash step. Subsequently, biotinylated huGPC3 was added at a constant concentration of 1 μg/mL in PBS-0.1% T-2% BSA for 1 h. After washing, a 1:5000 dilution of ExtrAvidin-HRP (Sigma-Aldrich) in PBS-0.1% T-2% BSA was added to the wells and incubated for 1 h. After an additional wash step, fluorogenic HRP substrate (QuantaBlu, Thermo) was added to each well, and the fluorescence intensity was detected using a fluorescence microplate reader.
(§5) Exemplary dual binding data are shown in FIG. 3, together with the fit curves resulting from a 1:1 sigmoidal binding fit, where the EC₅₀ value and the maximum signal were free parameters, and the slope was fixed to unity.

[6] = target: T4, recombinant human GPC3 (huGPC3) (R&D Systems) (human, UniProt P51654 25-559); assay: dual-binding ELISA: huGPC3 coated, fusion titrated, detection with biotinylated huCD137-His
T4 construct: also called biotinylated huGPC3
T4 sequence (P51654 25-559 limits assumed): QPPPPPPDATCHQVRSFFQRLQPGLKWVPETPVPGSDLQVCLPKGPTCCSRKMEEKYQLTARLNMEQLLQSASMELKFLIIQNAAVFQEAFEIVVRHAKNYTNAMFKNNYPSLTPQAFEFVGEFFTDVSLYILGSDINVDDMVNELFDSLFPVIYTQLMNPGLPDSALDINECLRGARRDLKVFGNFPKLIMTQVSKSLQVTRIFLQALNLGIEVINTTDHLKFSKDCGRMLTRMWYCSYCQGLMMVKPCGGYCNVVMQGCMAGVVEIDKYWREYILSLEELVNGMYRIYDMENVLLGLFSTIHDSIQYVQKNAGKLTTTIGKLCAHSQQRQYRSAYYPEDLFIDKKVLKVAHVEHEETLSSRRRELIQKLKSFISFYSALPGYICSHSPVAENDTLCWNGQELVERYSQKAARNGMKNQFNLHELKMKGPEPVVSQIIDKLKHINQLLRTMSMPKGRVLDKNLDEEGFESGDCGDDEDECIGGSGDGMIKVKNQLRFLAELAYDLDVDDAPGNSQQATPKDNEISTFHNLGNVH
Procedure: as §4
The dual binding of fusion proteins was also tested with a reverse set-up where recombinant huGPC3 (R&D Systems) was coated on microtiter plates at 1 μg/ml and the bound fusion proteins were detected via the addition of 5 μg/mL biotinylated huCD137-His.
as §5

[7] = target: T2, human GPC3 expressed on cells …; assay: flow cytometry on MKN-45 tumor cells (GPC3 moderate)
Procedure: as §2, §3

T1 sequence (Q07011 24-255): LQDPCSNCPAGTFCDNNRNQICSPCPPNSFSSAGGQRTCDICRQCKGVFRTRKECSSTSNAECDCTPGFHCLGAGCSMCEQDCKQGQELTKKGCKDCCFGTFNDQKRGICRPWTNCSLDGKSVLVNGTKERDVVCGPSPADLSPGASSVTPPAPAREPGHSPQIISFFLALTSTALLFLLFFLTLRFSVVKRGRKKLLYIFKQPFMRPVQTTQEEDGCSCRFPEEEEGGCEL

- EC50 [1]: 13.1 nM
- EC50 [2]: 23.2 nM
- EC50 [3]: 0.52 nM
- EC50 [4]: 7.92 nM
- EC50 [5]: 4.2 nM
- EC50 [6]: 0.98 nM
- EC50 [7]: 2.59 nM
B1: fusion protein SEQ ID NOs: 87 and 82 (bispecific antibody, human IgG4 S228P, kappa, F234A L235A)
heavy: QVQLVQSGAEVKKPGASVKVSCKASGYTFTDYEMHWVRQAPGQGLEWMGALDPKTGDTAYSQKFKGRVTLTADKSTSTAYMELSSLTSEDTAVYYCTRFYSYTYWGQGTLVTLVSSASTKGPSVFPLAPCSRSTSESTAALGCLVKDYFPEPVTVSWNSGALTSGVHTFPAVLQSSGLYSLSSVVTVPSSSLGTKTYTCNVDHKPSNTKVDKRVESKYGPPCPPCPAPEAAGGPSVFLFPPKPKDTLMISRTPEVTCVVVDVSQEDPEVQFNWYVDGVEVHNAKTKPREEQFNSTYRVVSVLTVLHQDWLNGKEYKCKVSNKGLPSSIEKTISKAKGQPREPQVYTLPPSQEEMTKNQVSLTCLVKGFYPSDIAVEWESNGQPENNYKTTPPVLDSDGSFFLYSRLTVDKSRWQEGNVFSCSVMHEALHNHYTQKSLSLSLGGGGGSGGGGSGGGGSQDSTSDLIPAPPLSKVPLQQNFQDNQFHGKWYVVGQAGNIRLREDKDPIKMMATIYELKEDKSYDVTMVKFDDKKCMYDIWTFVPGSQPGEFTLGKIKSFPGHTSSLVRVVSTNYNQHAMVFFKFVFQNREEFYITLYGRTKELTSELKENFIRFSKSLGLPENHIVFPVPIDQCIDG
light: DVVMTQSPLSLPVTPGEPASISCRSSQSLVHSNRNTYLHWYLQKPGQSPQLLIYKVSNRFSGVPDRFSGSGSGTDFTLKISRVEAEDVGVYYCSQNTHVPPTFGQGTKLEIKRTVAAPSVFIFPPSDEQLKSGTASVVCLLNNFYPREAKVQWKVDNALQSGNSQESVTEQDSKDSTYSLSSTLTLSKADYEKHKVYACEVTHQGLSSPVTKSFNRGEC
notes: also called exemplary fusion protein
